# T1: Trop2蛋白 (UniProt P09758 27-274)
# T1 sequence (looked up): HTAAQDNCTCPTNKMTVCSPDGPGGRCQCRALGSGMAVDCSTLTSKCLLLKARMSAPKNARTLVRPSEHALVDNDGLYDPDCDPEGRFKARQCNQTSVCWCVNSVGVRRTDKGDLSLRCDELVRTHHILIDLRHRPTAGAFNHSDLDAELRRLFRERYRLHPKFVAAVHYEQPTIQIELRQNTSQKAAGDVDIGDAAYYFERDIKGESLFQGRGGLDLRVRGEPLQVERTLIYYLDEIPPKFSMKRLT
# T2: CD24蛋白 (UniProt P25063 27-59)
# T2 chain (looked up): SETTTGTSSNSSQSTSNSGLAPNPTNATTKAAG
# T3: B7-H3蛋白 (UniProt Q5ZPR3-2 29-245, limits assumed)
# T3 sequence (looked up): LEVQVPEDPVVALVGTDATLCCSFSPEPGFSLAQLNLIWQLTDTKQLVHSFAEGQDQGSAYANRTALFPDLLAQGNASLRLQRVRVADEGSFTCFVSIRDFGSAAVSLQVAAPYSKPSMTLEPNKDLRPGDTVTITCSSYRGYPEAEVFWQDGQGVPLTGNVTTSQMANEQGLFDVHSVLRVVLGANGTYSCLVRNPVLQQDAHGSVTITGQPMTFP
# T4: human-siglec-15蛋白 (human, UniProt Q6ZMC9 20-263, biotinylated in the BLI assay and in phage panning (site not stated))
# T4 construct: Bought protein (Novoprotein for ELISA coating; biotinylated antigen from Obiosh for panning); The same entry is used for the plain and the biotinylated protein; also called hsiglec-15; siglec-15抗原
# T4 sequence (looked up): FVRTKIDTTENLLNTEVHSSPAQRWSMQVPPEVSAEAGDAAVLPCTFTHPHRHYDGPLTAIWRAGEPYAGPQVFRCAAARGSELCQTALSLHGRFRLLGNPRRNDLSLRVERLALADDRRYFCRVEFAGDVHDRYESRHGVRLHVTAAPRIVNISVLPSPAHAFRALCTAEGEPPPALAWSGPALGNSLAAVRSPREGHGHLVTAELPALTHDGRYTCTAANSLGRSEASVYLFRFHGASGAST
# B1: S131-IgG1 (antibody, V domains shown)
# VH: QVQLQESGPGLVNPSGTLSLSCTVSGDSIRNWYSWVRQPPGKGLEWIGEIHDNGGTNHNPSLKSRVTMSVGKSTSQLSLILNSVTAADTAVYHCAREGLPDGLDIWGPGTMVTVSS
# VL: SSELTQDPAVSVALGQTVRITCQGDSLRSYYASWYQRKPGQAPILVMYGQNNRPSGIPDRFSGSNSRNTASLTITGAQAEDEADYYCGSRDTSDYRVLFGGGTKLTVLG
# notes: also called 抗siglec15-IgG1重组抗体S131-IgG1; 全人源抗siglec-15-IgG1抗体
# Experiments:
# EphA2蛋白 = EphA2蛋白 (UniProt P29317 25-534, limits assumed); test: ELISA, antigen coated at 1 μg/mL
# Trop2蛋白 = molecular target: T1, Trop2蛋白; test: ELISA, antigen coated at 1 μg/mL
# CD24蛋白 = molecular target: T2, CD24蛋白; test: ELISA, antigen coated at 1 μg/mL
# B7-H3蛋白 = molecular target: T3, B7-H3蛋白; test: ELISA, antigen coated at 1 μg/mL
# human-siglec-15蛋白 = molecular target: T4, human-siglec-15蛋白; test: BLI (Octet RED96), biotinylated siglec-15 on SA sensor, antibody at 5, 10, 20 μg/mL
# Sequence of EphA2蛋白 (P29317 25-534 limits assumed): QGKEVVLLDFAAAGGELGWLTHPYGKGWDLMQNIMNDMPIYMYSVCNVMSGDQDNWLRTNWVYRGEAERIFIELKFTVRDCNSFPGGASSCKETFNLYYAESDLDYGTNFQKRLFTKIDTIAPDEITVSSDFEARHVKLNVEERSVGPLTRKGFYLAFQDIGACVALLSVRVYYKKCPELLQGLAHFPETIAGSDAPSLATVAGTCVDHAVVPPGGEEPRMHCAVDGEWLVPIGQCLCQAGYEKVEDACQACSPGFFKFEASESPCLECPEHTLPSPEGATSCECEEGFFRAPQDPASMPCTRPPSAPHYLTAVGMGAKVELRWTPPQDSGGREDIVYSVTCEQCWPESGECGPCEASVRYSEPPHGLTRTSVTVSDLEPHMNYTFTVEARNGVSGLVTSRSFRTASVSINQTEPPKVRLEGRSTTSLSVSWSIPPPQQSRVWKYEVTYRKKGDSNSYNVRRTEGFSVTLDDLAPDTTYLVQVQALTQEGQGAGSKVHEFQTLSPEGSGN
binder,measurement,setting,value
B1,binding result,EphA2蛋白,no binding
same,binding result,Trop2蛋白,no binding
same,binding result,CD24蛋白,no binding
same,binding result,B7-H3蛋白,no binding
same,Kd,human-siglec-15蛋白,~1 nM
